Source: paper PMC5240623, “Methylation specific targeting of a chromatin remodeling complex from sponges to humans” (Scientific Reports, 2017)
No end group written: not given here.

Biological target: T1, HsGATAD2A coiled-coil domain, uncleaved fusion peptide (human, UniProt Q86YP4 137-178)
T1 construct: GATAD2A (p66α), human, coiled-coil domain; the purification of this construct is not described here; also called GATAD2A (p66α)
Test: ITC; fusion peptides left uncleaved; 50 mM Hepes pH 7.4, 150 mM NaCl, 298 K; MicroCal Auto-iTC200, 20–24 injections; HsMBD2 (1.8 mM), EmGATAD2A/B (2.74 mM), DmGATAD2A/B (2.5 mM) injected into HsGATAD2A (100 μM), EmMBD2/3 (270 μM), DmMBD2/3 (250 μM); one-site binding model
Conditions: both partners purified

T1 sequence (Q86YP4 137-178): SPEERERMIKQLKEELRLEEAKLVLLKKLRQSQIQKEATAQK

Kd: 48 nM
dH: -9.93 kcal/mol
stoichiometry N: 1.3
B1: HsMBD2 coiled-coil domain, uncleaved fusion peptide (domain or fragment, human)
chain: KAFIVTDEDIRKQEERVQQVRKKLEEALMADILS
modifications: also: uncleaved fusion tag
notes: MBD2, human, coiled-coil domain; the purification of this construct is not described here
